One series has as its target T1, human IL-23R (hIL-23R) (Homo sapiens, UniProt Q5VWK5).
T1 construct: his tag (C); purchased
T1 sequence (Q5VWK5 24-629): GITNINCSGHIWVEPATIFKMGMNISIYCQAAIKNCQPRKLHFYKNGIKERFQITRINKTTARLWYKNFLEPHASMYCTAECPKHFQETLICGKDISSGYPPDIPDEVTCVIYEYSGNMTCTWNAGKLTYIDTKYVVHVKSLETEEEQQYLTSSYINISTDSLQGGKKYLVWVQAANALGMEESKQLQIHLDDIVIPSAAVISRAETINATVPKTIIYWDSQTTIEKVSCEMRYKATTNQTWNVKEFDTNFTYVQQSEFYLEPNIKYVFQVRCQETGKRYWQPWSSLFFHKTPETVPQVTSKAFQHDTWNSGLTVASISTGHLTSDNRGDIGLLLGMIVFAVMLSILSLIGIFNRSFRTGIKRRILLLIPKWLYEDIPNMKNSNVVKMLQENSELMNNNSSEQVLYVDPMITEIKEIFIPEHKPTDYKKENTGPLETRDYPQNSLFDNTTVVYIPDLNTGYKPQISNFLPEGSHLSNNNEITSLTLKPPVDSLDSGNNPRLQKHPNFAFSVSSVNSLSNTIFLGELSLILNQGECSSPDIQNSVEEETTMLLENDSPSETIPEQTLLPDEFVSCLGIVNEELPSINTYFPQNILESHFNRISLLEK
The series can be described thus: Biolayer interferometry (BLI) binding to hIL-23R. The following applies: biolayer interferometry binding titrations; read-out: affinity (KD) for hIL-23R. An excerpt:
Two designs, 23R_A (SEQ ID NO:10) and 23R_B (SEQ ID NO:110), were highly enriched in the final selection pool and were chosen for further biochemical characterization. Both designs are 3-helix bundles (54 and 53 residues, respectively) which incorporate the native Trp hotspot at the N-terminal end of a helix such that IL-23R residue D118 forms a helix-capping hydrogen bond with the Trp hotspot's free backbone amine, similar to the αD helix of p19 (FIG. 1D). In both designs, this central binding helix has a larger interaction surface with hIL-23R, mediated by additional de novo hotspots, than p19. […]
Variants were first screened for relative binding to hIL-23R with biolayer interferometry (BLI). hIL-23R was immobilized on the BLI sensor tips and binding to each variant in solution at a constant concentration (50 nM) was measured to qualitatively determine relative performance of the variants. For the best-performing variants, binding constants (KD, including kon, and koff) were quantitatively determined with BLI titration experiments in triplicate. […]
Qualitative and quantitative assessment of binding affinity was performed using biolayer interferometry (ForteBio Octet™ […] and associated software for analysis). […] Kinetic constants were determined from the mathematical fit of a 1:1 binding model.
For orientation: In BLI a coated tip is dipped into the sample, and binding shifts an interference pattern.

Series [1] in a line: Proteolytic stability in simulated intestinal fluid (SIF), SDS PAGE. The series is classed as in vitro ADME. The following applies: for SIF t1/2: pH 6.5. From the text: (§1) While resistance to high heat is important for manufacturing and storage, and resistance to chemical denaturant is a good proxy for stability overall, any oral, gut-restricted IL-23R inhibitor will preferably survive the harsh conditions of the gastrointestinal tract, including high acidity and physiological proteases, to reach the site of action intact. To determine feasibility of oral administration, we therefore more directly assessed the stability of our designed IL-23R inhibitors in simulated gastric fluid (SGF), including the protease pepsin at pH 2, and simulated intestinal fluid (SIF), including proteases trypsin and chymotrypsin at pH 6.5. Proteolysis was assessed qualitatively by SDS PAGE at timepoints up to 24 hours.
Several reported formulations of simulated intestinal fluid show variable proteolytic activity, and protease activity of human intestinal fluid has not been thoroughly studied. Therefore, as a benchmark for SIF stability, we directly compared our designs to V565-38F, an oral, gut-restricted nanobody inhibitor of TNFa currently in a phase 2 clinical trial for Crohn's disease, in SIF with enzyme concentrations sufficient to degrade this molecule over 24 hours. Design variants with proteolytic stability greater than or equal to V565-38F are likely to be sufficiently stable to enable oral therapy.
(§2) Simulated intestinal fluid (SIF) was prepared as recommended by Jantratid et al. (termed FaSSIFv2) with the addition of proteases trypsin and chymotrypsin each at 30 μg/mL.^18 This composition is denoted as “1x SIF” in the text. In some instances, designed proteins (pure recombinant protein, or yeast libraries as above) or the comparator V565-38F were so stable that minimal degradation could be detected at the maximum duration (24 hours for SDS PAGE experiments, 90 minutes for cytometry experiments). Therefore, we increased the concentrations of both trypsin and chymotrypsin to increase the rate of digestion; these solutions are denoted as “#x SIF”, where for example “2x SIP” denotes a 2-fold increase in concentration of both trypsin and chymotrypsin (to 60 μg/mL), Simulated gastric fluid was prepared as follows: 600 ug/mL pepsin and 34.2 mM NaCl in water, with […] added to adjust pH to 2.
For qualitative assessment of proteolytic stability, pure recombinant proteins were digested at 37° C. for 24 hours and proteolytic cleavage assessed by SDS PAGE. From concentrated stock solutions, recombinant proteins were added to stock SGF and SIF solutions to a final concentration of 0.1 mg/mL. Timepoints were taken at 0, 5, 15, 30, 60 minutes, 4 and 24 hours; at each timepoint, samples were removed and immediately mixed with load dye and boiled for 5 minutes at 95° C. to quench protease activity. 5 ug protein (based on initial digest concentration of 0.1 mg/mL) per timepoint were run on 16% Tris-tricine polyacrylamide gels.

Series [2] has as its target T2, IL-23R (Homo sapiens, UniProt Q5VWK5).
T2 sequence (Q5VWK5 24-629): T1 sequence (Q5VWK5 24-629)
The series can be described thus: Surface plasmon resonance (SPR) binding affinity to hIL-23R. The arrangement: his tag (C); purchased.

Series [3] can be described thus: Proteolytic stability in simulated gastric fluid (SGF), SDS PAGE. Format: in vitro ADME.
Description: as §1, §2
For qualitative assessment of proteolytic stability, pure recombinant proteins were digested at 37° C. for 24 hours and proteolytic cleavage assessed by SDS PAGE. From concentrated stock solutions, recombinant proteins were added to stock SGF and SIF solutions to a final concentration of 0.1 mg/mL. […]

For series [4], the target named is T2, IL-23R. The series can be described thus: IL-23-mediated cell signaling assay (Promega IL-23 Bioassay luciferase reporter cells). Format: cell-based. The following applies: IL-23 reporter assay; C-terminal versus N-terminal 6-histidine tag. How it is done:
FIG. 7. Designed IL-23R inhibitor block IL-23-mediated cell signaling in vitro. Cells engineered to express luciferase downstream of IL-23R (Promega) were pre-incubated for 30 minutes with a titration of each inhibitor, then stimulated with 8 ng/mL human IL-23 cytokine for 6 hours. Luciferase substrate was added, luminescence read, and % inhibition of signaling calculated relative to wells with no inhibitor added. IC50 was calculated using linear regression to fit dose response; values are shown above alongside fold increase in potency relative to a competitor molecule PTG compound C.
Next, we assessed the ability of IL-23R inhibitors to block IL-23-mediated cell signaling. […] IC50 values were determined using linear regression to fit dose response.
Commercial IL-23 reporter cells (Promega IL-23 Bioassay) expressing luciferase downstream of IL-23R were used to assess inhibition of IL-23-mediated cell signaling. Cells were plated in the inner wells of 96-well tissue culture treated white plates suitable for reading luminescence. Cells were pre-incubated for 30 minutes with a dilution series of each inhibitor, then treated with the EC80 stimulatory concentration of recombinant human IL-23 cytokine determined in preceding experiments (8 ng/mL; R&D 1290-IL). After 6 hours incubation with human IL-23, luciferase substrate was added and luminescence read. […]
For orientation: Reporter assays use an easily measured gene product as a stand-in for the process of interest.

Where [5] appears, read: trypsin and chymotrypsin, 37° C., SDS PAGE.

Where two headings read alike, the source gives them in different places.

For orientation: Kd means the constant that tells how readily two partners part at equilibrium.

In the case of “IL-23 cytokine: native ligand; heterodimeric cytokine composed of the p19 subunit and the p40 subunit”, the dissociation constant Kd with human IL-23R (hIL-23R) was found to be 1.7 nM.

“MEPEKYLRELCKKYYEGKLSQQEAVEEIRKYARKKGLEAWKLVWYFMQCVKRDI [rA11dslf02]”: the “SIF t1/2” value in series [1] (simulated gi fluid) was 60 min.

In the case of “NLWQIFYLLNTCIKRTGDPTCKKLKKALRECEKKGDEKACKELAKKAMKYIRS (NLWQIFYLLNTCIKRTGDPTCKKLKKALRECLKKGDEKACKELAKKAMKYIRS) [B04dslf02]”, the “SIF t1/2” value in series [1] (setting [5]) was 5 to 15 min.

Turning to “PEPEKYLQELCKKYYEGKLSQQEAVEEIRKYARKWGLEAWKLVWYFMQCVKRDI [rA11dslf02_M1P_R8Q_K35W]”, binding with IL-23R [2] was put at a Kd of 0.075 nM. Moreover, in series [1] (SIF with enzyme concentrations sufficient to degrade V565-38F over 24 hours (3x SIF)), the “stability in SIF compared to V565-38F” value is given as “similarly stable”. The “SIF t1/2” value in series [1] (setting [5]) is 240 to 1440 min. The “stability in SGF compared to V565-38F” value in series [3] (SGF) is on record as “much more stable”.

For “PLWQVFYLLNTCIKRTGDPTCKKLAKALRECLKKGDLKACNELADKAVKYINS [B04dslf02IB]”, the Kd in the series with IL-23R [2] is less than 0.001 nM. In addition, in the series with IL-23R [4], the “effect of C-terminal 6-histidine tag on potency” value was “no effect on potency”. Further, the “effect of C-terminal 6-histidine tag on proteolytic stability” value in series [1] (SGF or SIF up to 24 hours, C-terminal versus N-terminal 6-histidine tag) is listed as “greatly enhances the proteolytic stability”. The “SIF t1/2” value in series [1] (setting [5]) is 30 to 60 min.

As to “mB09dslf01-T48I: best mIL-23R inhibitor after optimization for stability and mIL-23R affinity; T48I variant of mB09dslf01; no SEQ ID given (NLWQIFYCLLTCIKRTGDPTCKKLLKALQEAVKKNDEKAVKELAKKAIKYCRSHHHHHH)”, in series [1] (simulated gi fluid), the “3x SIF t1/2” value is recorded as “greater than 24 hours”. Besides, the “stability in SGF compared to V565-38F” value in series [3] is “more stable”. In series [3] (simulated gi fluid, pH 2), the “SGF t1/2” value was “greater than 24 hours”.

(Values after patent US20230357323A1, “HUMAN IL23 RECEPTOR BINDING POLYPEPTIDES” (University of Washington, priority 2020, published 2023).)
